System: LTRP5-ADD-ZIM3 (dCasX491 fused to DNMT3A ADD/CD, DNMT3L, ZIM3-KRAB) (synthetic construct)
Assay: cell_activity
Settings: HEK293T day 8; non-targeting control

Sequence of LTRP5-ADD-ZIM3 (dCasX491 fused to DNMT3A ADD/CD, DNMT3L, ZIM3-KRAB) (synthetic construct) (chain, as listed by the source): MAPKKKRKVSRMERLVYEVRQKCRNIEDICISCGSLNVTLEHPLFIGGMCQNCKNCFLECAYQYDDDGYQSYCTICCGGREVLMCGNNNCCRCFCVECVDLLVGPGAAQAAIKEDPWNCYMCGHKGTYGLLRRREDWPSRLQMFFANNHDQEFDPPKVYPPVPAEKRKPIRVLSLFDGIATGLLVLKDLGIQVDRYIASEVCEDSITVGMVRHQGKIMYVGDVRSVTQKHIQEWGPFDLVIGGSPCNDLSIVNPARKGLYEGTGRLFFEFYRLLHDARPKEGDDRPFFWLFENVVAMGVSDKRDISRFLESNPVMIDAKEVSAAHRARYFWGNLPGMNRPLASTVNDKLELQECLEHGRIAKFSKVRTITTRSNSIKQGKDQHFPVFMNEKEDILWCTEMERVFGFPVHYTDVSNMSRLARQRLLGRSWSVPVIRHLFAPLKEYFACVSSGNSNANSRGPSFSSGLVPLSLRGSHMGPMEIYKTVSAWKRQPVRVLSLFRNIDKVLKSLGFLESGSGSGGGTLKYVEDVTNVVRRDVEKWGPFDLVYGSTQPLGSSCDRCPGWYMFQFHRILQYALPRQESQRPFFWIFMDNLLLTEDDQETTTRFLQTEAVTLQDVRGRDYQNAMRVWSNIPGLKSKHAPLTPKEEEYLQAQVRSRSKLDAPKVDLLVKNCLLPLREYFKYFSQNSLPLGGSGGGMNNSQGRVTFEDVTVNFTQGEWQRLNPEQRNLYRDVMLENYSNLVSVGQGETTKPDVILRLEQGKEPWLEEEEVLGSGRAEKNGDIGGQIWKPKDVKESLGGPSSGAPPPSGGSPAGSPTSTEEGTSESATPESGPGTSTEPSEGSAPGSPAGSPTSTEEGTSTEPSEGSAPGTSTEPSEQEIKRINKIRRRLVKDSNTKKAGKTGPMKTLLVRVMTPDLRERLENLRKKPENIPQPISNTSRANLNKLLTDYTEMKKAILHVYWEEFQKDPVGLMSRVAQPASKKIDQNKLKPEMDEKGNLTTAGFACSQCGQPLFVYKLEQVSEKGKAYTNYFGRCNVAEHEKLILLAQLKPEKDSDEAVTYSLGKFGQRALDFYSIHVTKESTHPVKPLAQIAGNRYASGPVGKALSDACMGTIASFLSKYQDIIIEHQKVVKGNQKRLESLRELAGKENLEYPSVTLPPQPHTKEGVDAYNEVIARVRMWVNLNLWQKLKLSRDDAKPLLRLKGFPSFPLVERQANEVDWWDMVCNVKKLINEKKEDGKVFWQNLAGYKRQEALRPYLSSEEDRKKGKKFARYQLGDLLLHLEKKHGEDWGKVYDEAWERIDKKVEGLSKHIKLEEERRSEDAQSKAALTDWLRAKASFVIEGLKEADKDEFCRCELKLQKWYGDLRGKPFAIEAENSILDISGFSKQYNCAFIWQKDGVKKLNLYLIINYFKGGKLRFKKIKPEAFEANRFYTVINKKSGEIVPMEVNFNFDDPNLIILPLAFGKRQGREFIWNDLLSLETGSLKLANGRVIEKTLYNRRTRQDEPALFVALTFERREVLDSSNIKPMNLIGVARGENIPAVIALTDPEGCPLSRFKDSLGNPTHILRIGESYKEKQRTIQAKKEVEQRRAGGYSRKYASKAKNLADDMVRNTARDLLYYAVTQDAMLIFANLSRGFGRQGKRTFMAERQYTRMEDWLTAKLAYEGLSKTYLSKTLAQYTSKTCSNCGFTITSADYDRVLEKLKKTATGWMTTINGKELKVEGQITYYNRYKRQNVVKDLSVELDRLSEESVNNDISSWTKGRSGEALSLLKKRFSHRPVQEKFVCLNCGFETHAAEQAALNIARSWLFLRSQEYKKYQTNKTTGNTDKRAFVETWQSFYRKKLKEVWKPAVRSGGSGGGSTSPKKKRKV

“non-targeting spacer gRNA ; human B2M locus” was tested, and the activity (% HLA-negative cells) was 8.44.

Source: US20260240958
